# How the values were obtained:
# [1] = substrate: CCCC(=O)Oc1ccc([N+](=O)[O-])cc1; assay: esterase assay in microplate, Michaelis-Menten kinetics; assay type: biochemical, Thermomonospora curvata; conditions: 25°C, pH 8.5
# Description: esterase assay in microplate, Michaelis-Menten kinetics on Tcur1278
# [2] = substrate: CCCC(=O)Oc1ccc([N+](=O)[O-])cc1; assay: as above; assay type: biochemical, Thermomonospora curvata; conditions: 25°C, pH 8.5; remark: listed apart in the source
# Description: esterase assay in microplate, Michaelis-Menten kinetics on Tcur0390
Protein,Km [1] [µM],kcat [1] [s⁻¹],Km [2] [µM],kcat [2] [s⁻¹]
"Tcur1278 (Thermomonospora curvata DSM 43183) (protein, mature protein without signal peptide, C-terminal His-tag, codon-optimised synthetic gene, pBAD TOPO, E. coli TOP10, IMAC purified, approx. 35 kDa) ANPYQRGPDPTESLLRAARGPFAVSEQSVSRLSVSGFGGGRIYYPTTTSQGTFGAIAISPGFTASWSSLAWLGPRLASHGFVVIGIETNTRLDQPDSRGRQLLAALDYLTQRSSVRNRVDASRLAVAGHSMGGGGTLEAAKSRTSLKAAIPIAPWNLDKTWPEVRTPTLIIGGELDSIAPVATHSIPFYNSLTNAREKAYLELNNASHFFPQFSNDTMAKFMISWMKRFIDDDTRYDQFLCPPPRAIGDISDYRDTCPHT",88.8 ± 12.8,2.3 ± 0.1,–,–
"Tcur0390 (Thermomonospora curvata DSM 43183) (protein, mature protein without signal peptide, C-terminal His-tag, codon-optimised synthetic gene, pBAD TOPO, E. coli TOP10, IMAC purified, approx. 35 kDa) ANPYQRGPNPTEASITAARGPFNTAEITVSRLSVSGFGGGKIYYPTTTSEGTFGAIAISPGFTAYWSSLEWLGHRLASQGFVVIGIETNTTLDQPDQRGQQLLAALDYLTQRSAVRDRVDASRLAVAGHSMGGGGSLEAAKARTSLKAAIPLAPWNLDKTWPEVRTPTLIIGGELDAVAPVATHSIPFYNSLSNAPEKAYLELDNASHFFPNITNTQMAKYMIAWMKRFIDDDTRYTQFLCPPPSTGLLSDFSDARFTCPM",–,–,83.1 ± 11.1,12.4 ± 0.4

# Reference: article PMC4231364, “Functional characterization and structural modeling of synthetic polyester-degrading hydrolases from Thermomonospora curvata” (AMB Express, 2014)
